± gives the uncertainty stated by the source.
B1: Tumor protein p73, residues 487 to 549; numbered along this chain, O15350 (parent)
chain: YHADPSLVSFLTGLGCPNCIEYFTSQGLQSIYHLQNLTIEDLGALKIPEQYRMTIWRGLQDLK

Variants of: B1
Assay: abundance fitness (aPCA) (normalised: wild type 0, dead -1); higher = more abundant; growth selection in yeast, the domain comes from the species named
Details: Homo sapiens

| Variant | abundance fitness |
| --- | --- |
| YHADPSLVSFLTGLGCPNCIEYFTSQGLQSIYHLQNLTIEDLGALKIPEQYRMTIWRGLQDLT [K63T] | 0.172 ± 0.14 |
| YHADPSLVSFLTGLGCPNCIEYFTSQGLQSIYHLQNLTIEDLGALLIPEQYRMTIWRGLQDLK [K46L] | -0.069 ± 0.032 |
| YHADPSLVSFLTGLGCPNCIEYFTSQGLQSIYHLQNLTIEDLTALKIPEQYRMTIWRGLQDLK [G43T] | 0.003 ± 0.052 |
| YHADPSLVSFLTGLGCPNCIEYFTSQGLQPIYHLQNLTIEDLGALKIPEQYRMTIWRGLQDLK [S30P] | -0.629 ± 0.094 |
| YHADPSLHSFLTGLGCPNCIEYFTSQGLQSIYHLQNLTIEDLGALKIPEQYRMTIWRGLQDLK [V8H] | -0.024 ± 0.079 |
| YHADPSLDSFLTGLGCPNCIEYFTSQGLQSIYHLQNLTIEDLGALKIPEQYRMTIWRGLQDLK [V8D] | 0.143 ± 0.15 |
| YHADPSLKSFLTGLGCPNCIEYFTSQGLQSIYHLQNLTIEDLGALKIPEQYRMTIWRGLQDLK [V8K] | 0.235 ± 0.04 |
| YHADPSLVSFLTGLGCPNCIEYFTSQGLQSIYHLDNLTIEDLGALKIPEQYRMTIWRGLQDLK [Q35D] | 0.073 ± 0.08 |
| YHADPSHVSFLTGLGCPNCIEYFTSQGLQSIYHLQNLTIEDLGALKIPEQYRMTIWRGLQDLK [L7H] | -0.969 ± 0.24 |
| YHADPSLVSFLTGLGCPNCIEPFTSQGLQSIYHLQNLTIEDLGALKIPEQYRMTIWRGLQDLK [Y22P] | -0.069 ± 0.074 |
| KHADPSLVSFLTGLGCPNCIEYFTSQGLQSIYHLQNLTIEDLGALKIPEQYRMTIWRGLQDLK [Y1K] | -0.153 ± 0.073 |
| EHADPSLVSFLTGLGCPNCIEYFTSQGLQSIYHLQNLTIEDLGALKIPEQYRMTIWRGLQDLK [Y1E] | 0.01 ± 0.063 |
| NHADPSLVSFLTGLGCPNCIEYFTSQGLQSIYHLQNLTIEDLGALKIPEQYRMTIWRGLQDLK [Y1N] | 0.054 ± 0.13 |
| VHADPSLVSFLTGLGCPNCIEYFTSQGLQSIYHLQNLTIEDLGALKIPEQYRMTIWRGLQDLK [Y1V] | 0.173 ± 0.044 |
| DHADPSLVSFLTGLGCPNCIEYFTSQGLQSIYHLQNLTIEDLGALKIPEQYRMTIWRGLQDLK [Y1D] | 0.23 ± 0.23 |
| QHADPSLVSFLTGLGCPNCIEYFTSQGLQSIYHLQNLTIEDLGALKIPEQYRMTIWRGLQDLK [Y1Q] | -0.195 ± 0.093 |
| YHADPSLVSFSTGLGCPNCIEYFTSQGLQSIYHLQNLTIEDLGALKIPEQYRMTIWRGLQDLK [L11S] | -1 ± 0.1 |
| YHADPSLVSFLTGLGCPNCIEYFTSQGLQSIYHLQNLTIEDLGALKIPEQYRMTIWRGLQVLK [D61V] | -0.104 ± 0.045 |
| YHADPSLVSFLTGLGRPNCIEYFTSQGLQSIYHLQNLTIEDLGALKIPEQYRMTIWRGLQDLK [C16R] | -0.407 ± 0.041 |
| YHADPSLVSFLTGLGCPNCIEYFTSQGLQSIYHLQNLTIEDLGACKIPEQYRMTIWRGLQDLK [L45C] | -0.016 ± 0.041 |
| YHADPSLVSFLTGLGCPNCIEYFTSQGLQSIYHLQNLTIEVLGALKIPEQYRMTIWRGLQDLK [D41V] | -0.644 ± 0.056 |
| YHADPSLVSRLTGLGCPNCIEYFTSQGLQSIYHLQNLTIEDLGALKIPEQYRMTIWRGLQDLK [F10R] | -0.962 ± 0.079 |

| Variant | abundance fitness |
| --- | --- |
| YHADPSLVSFLTGLGCPNCIEYFTSQGLQSIYHLQNNTIEDLGALKIPEQYRMTIWRGLQDLK [L37N] | -0.426 ± 0.21 |
| YHADPSLVSFLTGLGCPNCIEYFTSQGLQSIYHLQNMTIEDLGALKIPEQYRMTIWRGLQDLK [L37M] | 0.032 ± 0.05 |
| YHADPSLVSFLSGLGCPNCIEYFTSQGLQSIYHLQNLTIEDLGALKIPEQYRMTIWRGLQDLK [T12S] | -0.05 ± 0.042 |
| YHADPSLVSFLNGLGCPNCIEYFTSQGLQSIYHLQNLTIEDLGALKIPEQYRMTIWRGLQDLK [T12N] | 0.117 ± 0.083 |
| YHADPSLVSFLTGLGCPNCIEYFTSQGLQSIYHNQNLTIEDLGALKIPEQYRMTIWRGLQDLK [L34N] | -0.536 ± 0.13 |
| YHADPSLVSFLTGLGCPNCIEYFTSQGLQSIYHCQNLTIEDLGALKIPEQYRMTIWRGLQDLK [L34C] | -0.049 ± 0.068 |
| YHADPSLVSFLTGLGCPNCIEYFTSQGLQSIYHLQNLTIEDLGALKIPETYRMTIWRGLQDLK [Q50T] | -0.034 ± 0.05 |
| YHADPSLVSFLTGLICPNCIEYFTSQGLQSIYHLQNLTIEDLGALKIPEQYRMTIWRGLQDLK [G15I] | -0.937 ± 0.27 |
| YHADPSLVSFLTGLSCPNCIEYFTSQGLQSIYHLQNLTIEDLGALKIPEQYRMTIWRGLQDLK [G15S] | -0.17 ± 0.036 |
| YHADPSLVSFLTGLGCPNCIEYKTSQGLQSIYHLQNLTIEDLGALKIPEQYRMTIWRGLQDLK [F23K] | -0.975 ± 0.15 |
| YHADPSLVSFLTGLGCPNCINYFTSQGLQSIYHLQNLTIEDLGALKIPEQYRMTIWRGLQDLK [E21N] | -0.037 ± 0.098 |
| YHADPSLVSFLTGLGCPNCIAYFTSQGLQSIYHLQNLTIEDLGALKIPEQYRMTIWRGLQDLK [E21A] | -0.051 ± 0.04 |
| YHADPSLVSFLTGLGCPNCISYFTSQGLQSIYHLQNLTIEDLGALKIPEQYRMTIWRGLQDLK [E21S] | -0.003 ± 0.044 |
| YHADPSLVSFLTGLGCPNCIEYFTSQGLQSIYHLQNLTIEDLGALKIPEQYRMTIWRGLPDLK [Q60P] | -0.388 ± 0.05 |
| YHADPSLVSFLTGLGCPNCIEYFTSQGLQSIYHLQNLTIEDLGALKIPEQYRMTIWRGLWDLK [Q60W] | -0.068 ± 0.035 |
| YHADPSLVSFLTGLGCPNCIEYFTSQGLQSIYHLQNLTIEDLGALKIPEQYRMTIWRGLSDLK [Q60S] | 0.018 ± 0.036 |
| YHADPSLVSFLTGLGCPNCIEYFTSQGLQSIYHLQNLTIEDLGALKIPEQYRMTIQRGLQDLK [W56Q] | 0.035 ± 0.046 |
| YHADPSLVSFLTGLGCPNCIEYFTSQGLQSIYHLQNLTIEDLGALKIGEQYRMTIWRGLQDLK [P48G] | -0.173 ± 0.036 |
| YHADPSLVSFLTGLGCPNCIEYFTSQGLQSIYHLQNLTIEDLGALKISEQYRMTIWRGLQDLK [P48S] | -0.149 ± 0.037 |
| YHADPSLVSFLTGLGCPNCIEYFTSQGLQSIYHLQTLTIEDLGALKIPEQYRMTIWRGLQDLK [N36T] | -0.026 ± 0.059 |
| YHADPSLVSFLTGLGCPNCIEYFTSQGLQSIYHLQGLTIEDLGALKIPEQYRMTIWRGLQDLK [N36G] | 0.013 ± 0.035 |
